Measured values reported in patent US20240309059A1, “PEPTIDE HAVING ANTI-VIRAL ACTIVITY, ANTI-VIRAL AGENT COMPRISING SAID PEPTIDE, AND METHOD FOR PRODUCING SAID ANTI-VIRAL AGENT” (National University Corporation Tokyo Medical and Dental …, priority 2021, published 2024).

Experiments:
Assay in all cases: cell-based or functional assay
[1] = biological target: receptor binding domain (RBD) in wild-type SARS-COV-2 (SARS-CoV-2 (wild-type)), P0DTC2
[2] = biological target: receptor binding domain (RBD) in the SARS-CoV-2 Brazilian variant (P.1) (SARS-CoV-2 Brazilian variant (P.1)), P0DTC2
[3] = biological target: receptor binding domain (RBD) in the SARS-CoV-2 UK variant (B.1.1.7) (SARS-CoV-2 UK variant (B.1.1.7)), P0DTC2

Binder	IC50 value, plaque reduction assay using wild-type SARS-COV-2 [1] [nM]	IC50 value, plaque reduction assay using the SARS-COV-2 Brazilian variant (P.1) [2] [nM]	IC50 value, plaque reduction assay using the SARS-COV-2 UK variant (B.1.1.7) [3] [nM]
DKEWILQKIYEIMRLLDELGHAEASMRVSDLIYEFMKKD (modifications not checked) [Ce1]	1.5		
DKEWILQKIYEIMRRLDEEGHAEASMRVSDLIYEFMKKD (modifications not checked) [Ce9]	0.4	1200	13
DKEWILQKIYEIMRRLDEEGHGEASLRVSDLIYEFMKKD (modifications not checked) [Ce41]			0.68
DKLWILQKIYEIMVRLDEEGHGEASLMVSDLIYEFMKRD (modifications not checked) [Ce172]			0.0022
DKEWILYKIYEIMVRLDEEGHGEASLMVSDLIYEFMKRD (modifications not checked) [Ce149]			0.0021
DKEWILQKIYEIMRRLDEEGHGEASLRVSDLIYEFMKRD (modifications not checked) [Ce59]			0.2
